For assay [1], the target named is recombinant His-tagged Wolbachia surface protein wBm0152 (Wolbachia endosymbiont of B. malayi (wBm)). Put plainly: ELISA. For orientation: In an ELISA, binding on a coated surface is turned into a signal by an enzyme label.
Assay [2] addresses recombinant His-tagged B. malayi fructose-bisphosphate aldolase (B. malayi). Put plainly: far-Western, overlay or dot blot; His-Bm-aldolase (3 µg per lane) run on SDS-PAGE and blotted on nitrocellulose; strips incubated with 1, 2, 5 or 10 µg/ml His-wBm0432 in overlay buffer, 3 h, room temperature; signals quantified with GeneSnap.

Take “purified bovine actin (from UniProt P68138 1-377) (natural protein)”: the Kd (as a rule, the constant that tells how readily two partners part at equilibrium) in assay [1] was found to be 570 nM.
Turning to “recombinant His-tagged Wolbachia surface protein wBm0432 (natural protein)”, the Kd in assay [2] worked out at 510 nM.

The values are drawn from PMC3617236.
